Tests used:
Assay in all cases: cryo-EM structure; single-particle cryo-EM of the hexameric CORVET co-expressed in yeast and purified by 3xFLAG on Vps8 and SEC; about 0.8 mg/ml; consensus map 4.6 Å, local refinements to 3.8 Å
Conditions in all cases: both partners purified
Vps3 (CORVET subunit) = biological target: T1, Vps3 (CORVET subunit) (yeast, UniProt P23643 1-1011)
T1 construct: UniProt P23643 printed for its AlphaFold model; N-terminal half (with the β-propeller) was removed from the deposited model; source: yeast lysate in the Vps8-ALFA pull-downs
T1 sequence: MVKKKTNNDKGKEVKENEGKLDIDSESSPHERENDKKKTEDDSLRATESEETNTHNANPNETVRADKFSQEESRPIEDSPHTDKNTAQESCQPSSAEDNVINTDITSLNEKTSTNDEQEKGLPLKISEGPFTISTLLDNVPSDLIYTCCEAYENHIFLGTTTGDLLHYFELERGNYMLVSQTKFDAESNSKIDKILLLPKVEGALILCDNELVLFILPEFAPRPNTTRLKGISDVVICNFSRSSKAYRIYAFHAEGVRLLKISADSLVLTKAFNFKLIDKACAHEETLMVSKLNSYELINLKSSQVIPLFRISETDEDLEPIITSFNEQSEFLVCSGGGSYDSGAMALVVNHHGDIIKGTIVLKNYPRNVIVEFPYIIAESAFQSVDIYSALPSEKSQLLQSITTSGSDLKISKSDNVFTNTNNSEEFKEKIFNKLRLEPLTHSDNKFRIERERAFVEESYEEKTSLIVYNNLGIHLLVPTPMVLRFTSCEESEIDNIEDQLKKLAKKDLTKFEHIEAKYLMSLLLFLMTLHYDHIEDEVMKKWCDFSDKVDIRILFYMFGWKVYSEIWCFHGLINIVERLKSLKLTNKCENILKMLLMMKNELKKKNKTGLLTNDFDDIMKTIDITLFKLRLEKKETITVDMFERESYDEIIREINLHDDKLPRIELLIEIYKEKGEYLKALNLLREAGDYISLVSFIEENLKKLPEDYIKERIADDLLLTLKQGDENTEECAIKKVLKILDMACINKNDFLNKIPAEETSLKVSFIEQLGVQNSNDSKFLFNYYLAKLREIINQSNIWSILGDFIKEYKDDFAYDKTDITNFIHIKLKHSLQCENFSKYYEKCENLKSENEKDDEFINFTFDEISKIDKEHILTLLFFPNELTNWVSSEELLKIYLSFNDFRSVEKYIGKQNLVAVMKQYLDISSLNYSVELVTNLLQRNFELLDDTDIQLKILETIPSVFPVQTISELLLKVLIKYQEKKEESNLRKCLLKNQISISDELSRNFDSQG

[1] = biological target: T2, Vps8 with 3xFLAG tag (CORVET subunit) (yeast, UniProt P39702 1-1274)
T2 construct: UniProt P39702 printed for its AlphaFold model
T2 sequence: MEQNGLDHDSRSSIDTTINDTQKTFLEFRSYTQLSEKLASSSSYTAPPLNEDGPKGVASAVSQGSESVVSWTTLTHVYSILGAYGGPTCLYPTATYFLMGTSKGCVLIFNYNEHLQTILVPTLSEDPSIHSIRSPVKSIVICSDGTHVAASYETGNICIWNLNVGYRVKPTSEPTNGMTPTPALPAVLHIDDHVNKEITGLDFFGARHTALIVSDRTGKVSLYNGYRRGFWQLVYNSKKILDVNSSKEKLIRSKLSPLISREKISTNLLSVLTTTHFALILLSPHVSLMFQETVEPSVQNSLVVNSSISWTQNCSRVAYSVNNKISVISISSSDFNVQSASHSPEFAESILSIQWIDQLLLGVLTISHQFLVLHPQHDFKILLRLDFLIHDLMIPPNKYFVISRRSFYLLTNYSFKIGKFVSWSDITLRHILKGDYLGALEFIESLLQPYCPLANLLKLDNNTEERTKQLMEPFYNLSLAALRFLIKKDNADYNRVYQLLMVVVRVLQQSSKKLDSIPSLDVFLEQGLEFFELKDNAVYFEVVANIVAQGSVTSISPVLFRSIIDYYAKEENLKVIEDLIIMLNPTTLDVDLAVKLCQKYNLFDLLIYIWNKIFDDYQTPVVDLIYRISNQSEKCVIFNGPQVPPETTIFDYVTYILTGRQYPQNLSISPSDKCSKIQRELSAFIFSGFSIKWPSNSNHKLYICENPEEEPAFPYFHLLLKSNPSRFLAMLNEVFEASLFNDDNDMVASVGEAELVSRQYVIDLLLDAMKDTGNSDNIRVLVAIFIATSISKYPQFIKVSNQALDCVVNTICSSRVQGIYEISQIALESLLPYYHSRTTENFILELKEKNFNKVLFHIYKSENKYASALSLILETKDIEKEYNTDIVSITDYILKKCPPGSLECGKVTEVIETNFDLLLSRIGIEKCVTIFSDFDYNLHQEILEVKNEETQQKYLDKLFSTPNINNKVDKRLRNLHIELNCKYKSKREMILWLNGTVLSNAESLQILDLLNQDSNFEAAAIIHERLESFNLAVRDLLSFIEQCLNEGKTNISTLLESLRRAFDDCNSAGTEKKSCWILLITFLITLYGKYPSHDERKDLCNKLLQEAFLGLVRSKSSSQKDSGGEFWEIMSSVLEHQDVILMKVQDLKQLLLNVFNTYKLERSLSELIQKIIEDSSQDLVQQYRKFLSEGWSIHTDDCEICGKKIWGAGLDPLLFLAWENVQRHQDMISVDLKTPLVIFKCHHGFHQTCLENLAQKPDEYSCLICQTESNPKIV

[2] = biological target: T3, Vps11 (CORVET and HOPS core subunit) (yeast, UniProt P12868 1-1029)
T3 construct: Vps11, yeast, core subunit shared by CORVET and HOPS
T3 sequence: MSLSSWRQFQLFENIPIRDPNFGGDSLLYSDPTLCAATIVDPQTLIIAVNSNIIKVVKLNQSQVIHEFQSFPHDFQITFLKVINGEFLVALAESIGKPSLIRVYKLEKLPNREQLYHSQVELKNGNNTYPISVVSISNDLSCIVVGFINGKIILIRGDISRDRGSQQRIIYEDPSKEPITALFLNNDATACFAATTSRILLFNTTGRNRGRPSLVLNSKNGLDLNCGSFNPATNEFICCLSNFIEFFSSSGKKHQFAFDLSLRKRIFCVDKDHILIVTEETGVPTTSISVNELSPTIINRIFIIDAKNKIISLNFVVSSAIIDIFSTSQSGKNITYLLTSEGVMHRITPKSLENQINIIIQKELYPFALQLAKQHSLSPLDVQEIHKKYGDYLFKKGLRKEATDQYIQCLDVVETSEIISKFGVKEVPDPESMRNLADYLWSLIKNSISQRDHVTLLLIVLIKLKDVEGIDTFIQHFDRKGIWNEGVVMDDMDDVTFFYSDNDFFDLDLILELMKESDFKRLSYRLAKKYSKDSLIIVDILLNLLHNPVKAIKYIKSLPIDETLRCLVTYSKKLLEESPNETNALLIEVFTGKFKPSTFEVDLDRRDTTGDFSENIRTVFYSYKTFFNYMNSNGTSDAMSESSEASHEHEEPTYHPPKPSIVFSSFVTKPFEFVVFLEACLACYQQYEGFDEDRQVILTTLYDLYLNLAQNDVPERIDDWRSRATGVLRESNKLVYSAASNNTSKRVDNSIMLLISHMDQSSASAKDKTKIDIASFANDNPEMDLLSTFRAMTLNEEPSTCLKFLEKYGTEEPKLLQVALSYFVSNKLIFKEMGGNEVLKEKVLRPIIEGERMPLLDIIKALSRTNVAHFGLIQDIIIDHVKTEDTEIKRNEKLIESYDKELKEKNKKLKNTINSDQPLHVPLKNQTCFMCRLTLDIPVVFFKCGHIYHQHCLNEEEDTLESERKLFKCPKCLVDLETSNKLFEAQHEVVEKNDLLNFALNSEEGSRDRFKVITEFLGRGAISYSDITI

binding result (Vps3 (CORVET subunit)): binds
binding result [1]: binds
binding result [2]: binds
B1: Vps18 (CORVET and HOPS core subunit) (natural protein, yeast)
chain: MIKTRIEEVQLQFLTGNTELTHLKVSNDQLIVTTQRTIYRINLQDPAIVNHFDCPLSKELETIMNVHVSPMGSVILIRTNFGRYMLLKDGEFTQLNKIKNLDLSSLHWINETTFLMGIKKTPKLYRVELTGKDITTKLWYENKKLSGGIDGIAYWEGSLLLTIKDNILYWRDVTNMKFPLVLPDESEQFERLKHHAIKKFDSYNGLFAWVTSNGIVFGDLKEKQMEKDPASNNFGKFLSSSKVLLNFELPDYQNDKDHLIKDIVLTAFHILLLRKNTVTMVSQLNNDVVFHETIPRHQLTGSNTDSNEKFLGLVRDSVKETFWCFSNINVFEIIIENEPNSVWNLLVRDNKFDKALSLKGLTVREIESVKLSKAMYLFHTAKDFHSAAQTLGSMKDLSHFGEIALNFLQIKDYNDLNVILIKQLDNVPWKSTQVVLSSWIIWNFMKQLNDIELKINTTKPASTDEDNLLNWNLNLKEKSNELTKFLESHLEKLDNETVYQIMSKQNRQNELLIFASLINDMKFLLSFWIDQGNWYESLKILLTINNHDLVYKYSLILLLNSPEATVSTWMKIKDLDPNKLIPTILKFFTNWQNNSKLITNISEYPENYSLTYLKWCVREVPKMCNPIVYNSILYMMITDPRNDMILENDIIKFMKSNENKYDLNFQLRLSLKFKKTKTSIFLLTRLNLFEDAIDLALKNNLIDDCKVIVNDEILIEDYKLRKRLWLKIAKHLLLSMKDIDIKQLIRTILNDSNEILTIKDLLPFFNEYTTIANLKEELIKFLENHNMKMNEISEDIINSKNLKVEINTEISKFNEIYRILEPGKSCDECGKFLQIKKFIVFPCGHCFHWNCIIRVILNSNDYNLRQKTENFLKAKSKHNLNDLENIIVEKCGLCSDININKIDQPISIDETELAKWNE
notes: Vps18, yeast, core subunit shared by CORVET and HOPS

Reference: article PMC11187117, “Structure of the endosomal CORVET tethering complex” (Nature Communications, 2024)
